These results are taken from article PMC2196039.

Test [1] concerns the target soluble recombinant CD80 (sCD80), sCD80his after removal of the carboxy-terminal oligo-histidine tag (human). In words: SPR.
The target in test [2] is CTLA-4 Ig (human) (UniProt P16410). Nature of the test: pull-down.
Test [3] shares this target. Nature of the test: SPR.
Test [4] deals with CD28 Ig (UniProt P10747). Nature of the test: SPR.
The target of test [5] is CTLA-4 Ig (human) (UniProt P16410). Nature of the test: SPR. This is another data set of the same source.
Test [6] addresses CD28 Ig (UniProt P10747). In words: SPR. The source holds these as a separate data set.
The target of test [7] is CTLA-4 Ig (human) (UniProt P16410). Nature of the test: SPR. This is another data set of the same source.
Test [8] deals with CD28 Ig (UniProt P10747). Nature of the test: SPR. This is another data set of the same source.
The target of test [9] is CTLA-4 Ig (human) (UniProt P16410). In words: SPR. This is another data set of the same source.
For test [10], the target named is CD28 Ig (UniProt P10747). Nature of the test: SPR. The source holds these as a separate data set.

Values joined by “and” are separate entries in the source; they are usually repeats but may differ in a detail not shown here. Identical values can stand only once. Like-named read-outs stand apart in the source and are kept apart here.

Chain of CTLA-4 Ig (P16410 37-161): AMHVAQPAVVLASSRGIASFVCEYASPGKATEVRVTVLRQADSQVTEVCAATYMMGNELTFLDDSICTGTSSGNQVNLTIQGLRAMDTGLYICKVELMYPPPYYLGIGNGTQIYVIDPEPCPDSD

Take “CTLA-4 Ig (from UniProt P16410 37-161) (Fc fusion)”: the fold higher avidity than CD28 Ig in test [1] was > 100 fold.
The substance “soluble recombinant CD80 (sCD80), sCD80his after removal of the carboxy-terminal oligo-histidine tag (domain or fragment)” yielded a proportion of sCD80 with CTLA-4-binding activity with CTLA-4 Ig (human) [2] of 100%. This substance also yielded a Kd with CTLA-4 Ig (human) [3] of 380 nM. The Kd with CD28 Ig [4] stood at 4200 nM. In the test with CTLA-4 Ig (human) [5], the Kd worked out at 400 nM; the response at 0.26 μM sCD80 (CTLA-4 Ig 1,500 RUs), beginning of the experiment is 255 RU; the response at 0.26 μM sCD80 (CTLA-4 Ig 1,500 RUs), end of the experiment came out at 250 RU; the t1/2 of dissociation (high CTLA-4 Ig level, 20 μl/min) was 4.8 s. In the test with CTLA-4 Ig (human) [5], this substance gave a t1/2 of dissociation (high CTLA-4 Ig level, 40 μl/min) of 4.4 s; a t1/2 of dissociation (low CTLA-4 Ig level, 20 μl/min) of 2.2 s; a t1/2 of dissociation (low CTLA-4 Ig level, 40 μl/min) of 2.35 s. For the same substance, in the test with CD28 Ig [6], the dissociation constant Kd is 4100 nM and 4300 nM; the response at 0.82 μM sCD80 (CD28 Ig 7800 RUs), beginning of the experiment was 160 RU; the t1/2 of dissociation (high CD28 Ig level, 40 μl/min) is 0.93 s; the t1/2 of dissociation (high CD28 Ig level, 80 μl/min) amounted to 0.84 s. In the test with CD28 Ig [6], this substance yielded a t1/2 of dissociation (low CD28 Ig level, 40 μl/min) of 0.69 s and a t1/2 of dissociation (low CD28 Ig level, 80 μl/min) of 0.64 s. Besides, in the test with CTLA-4 Ig (human) [7], the Kd was found to be 260 nM. The same substance displayed a Kd in the test with CD28 Ig [8] of 2500 nM. In the test with CTLA-4 Ig (human) [9], this substance had a Kd of 420 nM. The Kd in the test with CD28 Ig [10] turned out to be 4000 nM.
